Literature values as cited in publication PMC7785802, “Therapeutic Efficacy of a Trichinella Spiralis Paramyosin-Derived Peptide Modified With a Membrane-Targeting Signal in Mice With Antigen-Induced Arthritis” (Frontiers in Microbiology, 2020).
Like-named read-outs stand apart in the source and are kept apart here.

Test system: antigen-induced arthritis (AIA)
Conditions: intraarticular injection prior to disease onset or at disease flares, animal models, Williams et al., 2004, Durigutto et al., 2013
Excerpt: As MAC is a therapeutic target in RA, complement inhibitors have shown potential for preventing and treating arthritis in animal models (Goodfellow et al., [2000]; Durigutto et al., [2013]). Moreover, local or targeted inhibition might be an effective way to circumvent the adverse effects of systemic complement inhibition. […] More precisely, intraarticular injection of membrane-targeted CD59 or Fc fusio ... || RA is an autoimmune disease that has been confirmed to involve inappropriate complement activation in the joint cavity, making the delivery of anti-complement drugs into the joint cavity an ideal therapeutic strategy to relieve RA progression (Dijkstra et al., [2019]). […] Murine AIA, a well-recognized acute complement-dependent arthritis, imitates the pathology of RA (van den Berg et al., [2007]). As complement activation is involved in the process of AIA, this model has been utilized in many studies to assess the therapeutic efficacy of complement inhibitors that might affect various stages of complement activation. In animal models, intraarticular injection of complement inhibitors (including sCR1, CD59, and anti-C5 neutralizing recombinant mini-antibody) prior to ...

B1: CD59: a heavily glycosylated protein of 20 kDa that can specifically inhibit MAC formation (protein, UniProt P13987 26-102, looked up)
CD59 glycoprotein: LQCYNCPNPTADCKTAVNCSSDFDACLITKAGLQVYNKCWKFEHCNFNDVTTRLRENELTYYCCKKDLCNFNEQLEN
effect on joint swelling and development of AIA (ref Goodfellow et al., 2000): alleviate joint swelling and the development of AIA | effect on joint swelling and development of AIA (ref Harris et al., 2002): alleviate joint swelling and the development of AIA
